The values that follow come from patent publication US20070048801A1.

The target in the assay is CXCR3 from Mus musculus (NCBI accession no. NP_034040) (Mus musculus) (UniProt O88410). Briefly: cell-based or functional assay.
UniProt O88410, sequence (O88410 whole entry): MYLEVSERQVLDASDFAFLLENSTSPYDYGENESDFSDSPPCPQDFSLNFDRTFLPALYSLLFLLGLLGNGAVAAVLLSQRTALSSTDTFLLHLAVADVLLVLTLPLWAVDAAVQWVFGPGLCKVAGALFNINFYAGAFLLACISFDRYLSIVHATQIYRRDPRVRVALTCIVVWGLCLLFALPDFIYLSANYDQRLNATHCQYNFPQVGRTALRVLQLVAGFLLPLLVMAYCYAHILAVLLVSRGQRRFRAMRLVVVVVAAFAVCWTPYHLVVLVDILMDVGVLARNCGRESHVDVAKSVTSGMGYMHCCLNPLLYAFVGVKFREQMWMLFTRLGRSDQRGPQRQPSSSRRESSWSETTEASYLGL

As to “PT-gliadin (gliadin digested with pepsin and trypsin) (peptide)”, the TEER, WT mouse intestinal segments (n=10), baseline stood at 24.1; the TEER, WT mouse intestinal segments (n=10), post-gliadin exposure was 14.7; the zonulin release, WT mouse intestinal segments (n=10), baseline (ng/mg protein) was found to be 0.33; the zonulin release, WT mouse intestinal segments (n=10), post-gliadin exposure (ng/mg protein) worked out at 0.61.
